In patent US9839671B2, “Peptide and uses therefor” (University of Birmingham, priority 2012, dated 2017):
Entries after “also recorded” stand apart in the source; their conditions may differ.

Tests used:
[1] = test system: transmigration of B cell depleted PBL / T cells / NK cells across TNF-α/IFN-γ stimulated endothelial cells; experiment: B cell dependence of adiponectin inhibition (B cell depletion, B cell supernatants, Brefeldin A, NK cells); format: cell-based, human; conditions: for effect of B cell supernatants prepared in the presence of Brefeldin A: inhibitor of B cell secretion; for adiponectin inhibition of migration after removal of B cells from PBL: adiponectin 15 μg/ml, B cell depleted PBL
Description: B cells were isolated and incubated in presence or absence of adiponectin at 15 μg/ml. […] For some experiments, B cells were treated with Brefeldin A, an inhibitor of B cell secretion. […] This is shown in FIG. 8, where the data is shown as mean±SEM and is representative of three independent experiments analysed using one-way ANOVA and Bonferroni's multiple comparison post test. ***p<0.001, ns=non-significant.
Refer to FIG. 14. Endothelial cells were cultured in low serum medium and stimulated with TNF-α/IFN-γ for 24 hours in the absence of adiponectin. PBL transmigration was measured after removal of B cells using bead positive selection and after reconstitution with B cells that were isolated using bead negative selection in presence or absence of adiponectin (15 μg/ml). Supernatants from adiponectin-treated B cells or B cell treated with Brefeldin A to block protein secretion were added to PBL.

[2] = test system: lymphocyte integrin LFA-1 (CD11a/CD18; αLβ2); experiment: LFA-1 affinity sites on memory T cells immobilised on ICAM, activated with IP-10; format: cell-based; conditions: IP-10 10 ng/ml, S1P 10 μM, 30 minutes
Description: Refer to FIG. 20. 96 well plates were coated with 50 μg/ml of recombinant ICAM overnight at 4° C. The plate was blocked using PBS 4% BSA for an hour at room temperature and PBL treated with IP-10 (10 ng/ml) and/or S1P (10 μM) were added for 30 minutes. Excess of unbound PBL was washed and PBL were labelled for the intermediate affinity site of the lymphocyte integrin LFA-1 (CD11a/CD18; αLβ2) using the KIM127 antibody (10 ug/ml) and for the high affinity site using antibody 24 (10 ug/ml) at 4° C. The expression of both affinity site was measured on memory T cells using mean fluorescence intensity (MFI). […] Data is a pool of two independent experiments.

[3] = test system: PBL or B cell depleted PBL transmigration across IFN-γ/TNF-α treated HUVEC; experiment: S1P signalling in PBL transmigration across HUVEC; format: cell-based, human
Description: Refer to FIG. 19. […]. Levels of SPHK1 and SPHK2 mRNA expression determined by real-time PCR of RNA from B cells and HUVEC (part D, n=2). PBL transmigration was measured across IFN-γ/TNF-α treated HUVEC pre-treated with SPHK1 specific inhibitor (5 μM) in presence of […] (10 ng/ml) (part E).

[4] = test system: transmigration of peripheral blood lymphocytes (PBL) across TNF-α/IFN-γ stimulated endothelial cells; experiment: PBL transendothelial migration, static adhesion (transwell) assay; format: cell-based, human; conditions: for PBL transmigration: static assay, adiponectin 0.0001-15 μg/ml, peptide 0.001-10 ng/ml, control peptides 10 ng/ml
[5] = test system: PBL from T1D patients across TNF-α/IFN-γ stimulated endothelial cells; experiment: Transmigration of PBL from type 1 diabetes patients; conditions: adiponectin 15 μg/ml one hour or exogenous PEPITEM
Description: Endothelial cells were cultured in low serum medium and stimulated with TNF-α/IFN-γ for 24 hours in absence of adiponectin. […] Data was analysed using t-test and one-way ANOVA and Bonferonni's multiple comparisons post-test. ***p≦1.0001.
Endothelial cells were cultured in low serum medium and stimulated with TNF-α/IFN-γ for 24 hours in the absence of adiponectin. […] Data was analysed using t-test **p<0.01.

[6] = test system: PBL migration across TNF-α/IFN-γ stimulated endothelial cells under flow; experiment: PBL migration, flow based adhesion assay; format: cell-based, human; conditions: adiponectin 15 μg/ml
Description: We have been interested in the ability of the adipocyte derived cytokine, adiponectin, to regulate the recruitment of human T cells to inflamed endothelium. […] In our in vitro studies we used static transwell assays, as well as flow based adhesion assays, to track the migration of T cells (which were in crude isolates of peripheral blood lymphocytes [PBL]) across TNF-α and IFN-γ stimulated endothelial cells.
Endothelial cells were cultured in low serum medium and stimulated with TNF-α/IFN-γ for 24 hours in the absence of adiponectin. PBL were isolated and treated with adiponectin at 0.0001 to 15 μg/ml for one hour.
Refer to FIG. 13. Endothelial cells were cultured in low serum medium and stimulated with TNF-α/IFN-γ for 24 hours in the absence of adiponectin. PBL were isolated and treated with adiponectin at 0.0001 to 15 μg/ml for one hour. […] In part (D), compound C, an AMP-kinase inhibitor, was added to PBL at 10 μg/ml for 30 minutes prior to addition of adiponectin at 15 μg/ml for 1 hour. AMPK is a signalling adapter that is required for adiponectin-receptor signalling. […] Data is a pool of at least three independent experiments and were analysed using t-test, one-way ANOVA and Dunnett's multiple comparisons post-test. **[…], ***[…].

For `C[C@H]1CCC/C=C/[C@@H]2C[C@H](O)C[C@H]2[C@H](O)/C=C/C(=O)O1` [Brefeldin A, reference compound], the “effect of B cell supernatants prepared in the presence of Brefeldin A” value (shortened to “effect of B cell supernatants prepared”) [1] was “not able to regulate the migration of T cells”, the “effect of B cell supernatants prepared” value ([1]; listed as Brefeldin-A) was “this effect was lost” and the “effect of B cell supernatants prepared” value ([1]; listed as Brefeldine A) was “lost”.

With `CCCCCCCCCCCCC/C=C/[C@@H](O)[C@@H](N)COP(=O)(O)O` [S1P, sphingosine-1-phosphate] the “expression of intermediate (KIM127) and high affinity (antibody 24) sites of LFA-1 on memory T cells (MFI)” value [2] was “down-regulated” and the “transmigration of B cell depleted PBL pre-treated with S1P” value ([3]; exogenous S1P 0-100 μM (FIG. 19C)) was “restores the inhibition of transmigration; also recorded: dose dependently inhibits T cell migration”.

With `CCCCCCc1cccc(NC(=O)[C@H](N)CCP(=O)(O)O)c1` [W146] the “effect on PEPITEM inhibition of lymphocyte transmigration” value ([3]; W146 10 μM with PEPITEM (FIG. 19B)) was “releases lymphocytes from the inhibitory effects of PEPITEM” and the “effect on adiponectin inhibition of lymphocyte transmigration” value ([3]; W146 10 μM, adiponectin 15 μg/ml (FIG. 19A)) was “releases lymphocytes from the inhibitory effects of Adiponectin”.

In the case of `c1cc(-c2cnn3cc(-c4ccc(OCCN5CCCCC5)cc4)cnc23)ccn1` [compound C, reference compound], the “effect on adiponectin-induced decrease of PBL transmigration” value ([4]; compound C 10 μg/ml on PBL 30 minutes before adiponectin 15 μg/ml 1 hour) is reported as “restored to normal, control levels; also recorded: restored to normal control levels; also recorded: ablated” and the “PBL migration in the absence of adiponectin” value ([4]; compound C alone) is reported as “did not have any effects”.

B1: adiponectin (protein)
chain: ETTTQGPGVLLPLPKGACTGWMAGIPGHPGHNGAPGRDGRDGTPGEKGEKGDPGLIGPKGDIGETGVPGAEGPRGFPGIQGRKGEPGEGAYVYRSAFSVGLETYVTIPNMPIRFTKIFYNQQNHYDGSTGKFHCNIPGLYYFAYHITVYMKDVKVSLFKKDKAMLFTYDQYQENNVDQASGSVLLHLEVGDQVWLQVYGEGERNGLYADNDNDSTFTGFLLYHDTN
notes: adipocyte-derived cytokine, used as positive control
With B1 the “adiponectin inhibition of migration after removal of B cells from PBL” value (from here on “adiponectin inhibition of migration”) [1] was “lost”, the “adiponectin inhibition of migration” value ([1]; listed as Adiponectin) was “completely inhibited this response” and the “adiponectin inhibition of migration” value ([1]; listed as Aq) was “completely inhibited this response”. The “migration of natural killer cells” value ([1]; with adiponectin (FIG. 7B)) was “not affected”, the “inhibition of transmigration of PBL from T1D patients” value [5] was “refractory; also recorded: significantly compromised” and the “inhibition of transmigration of PBL from T1D patients” value ([5]; listed as Adiponectin) was “lost”. The “EC50, inhibition of PBL transmigration” value ([4]; adiponectin, static adhesion assay, PBL treated one hour, linear regression (FIG. 1B)) was 0.94 µg/mL, the EC50 ([4]; adiponectin, static adhesion assay, linear regression (FIG. 13A), read-out: EC50, inhibition of PBL transmigration) was roughly 40 nM and the “inhibition of PBL transmigration on DMEC” value ([4]; dermal microvascular endothelium (FIG. 13C)) was “effective”. The “inhibition of PBL transmigration on HUVEC” value ([4]; endothelial cells from umbilical cord (FIG. 13C)) was “effective”, the “inhibition of PBL transmigration on HSEC” value ([4]; liver sinusoidal endothelial cells (FIG. 13C)) was “effective” and the “inhibition of PBL transmigration on HSAVEC” value ([4]; saphenous vein endothelial cells (FIG. 13C)) was “not”. The PBL transmigration [4] was “significantly and dose dependently reduced; also recorded: dose dependently blocked”, the PBL transmigration ([4]; listed as Adiponectin) was “induced a decrease of transmigration” and the PBL transmigration ([4]; listed as Aq) was “significantly reduced lymphocyte migration”. For the same molecule, the “PBL migration in flow based adhesion assay” value [6] was “equally effective”.
